Kd data for 2 substances are collected here from paper doi:10.1101/2023.01.06.522972.

The assay concerns the target Leishmania major actin (Leishmania major) (UniProt P45520). Kind of assay: ITC. On the technique in general: In ITC the heat of successive injections is recorded.

As usually defined, the Kd is the free concentration of one partner at which half of the binding sites on the other are occupied at equilibrium, for simple one-to-one binding. Read a high Kd as lower affinity.

Sequence of Leishmania major actin (Leishmania major) (P45520 2-376): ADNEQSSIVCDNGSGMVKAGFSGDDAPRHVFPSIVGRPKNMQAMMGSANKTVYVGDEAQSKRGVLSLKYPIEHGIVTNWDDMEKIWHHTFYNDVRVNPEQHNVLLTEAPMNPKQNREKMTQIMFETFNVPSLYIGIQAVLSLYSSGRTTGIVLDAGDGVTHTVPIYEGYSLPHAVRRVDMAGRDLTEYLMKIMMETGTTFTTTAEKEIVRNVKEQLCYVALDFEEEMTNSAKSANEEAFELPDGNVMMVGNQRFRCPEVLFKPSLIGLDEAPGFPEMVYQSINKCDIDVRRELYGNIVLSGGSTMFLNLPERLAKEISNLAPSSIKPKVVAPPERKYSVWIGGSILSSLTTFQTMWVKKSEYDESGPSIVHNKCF

As for LmProfilin-Y6A (natural protein), the Kd turned out to be 0.08 µM.
LmProfilin-K68A (natural protein) displayed a Kd of 6 µM. Against the preceding substance, the Kd is about 75-fold higher.
